B1: Calcium and integrin-binding protein 1 (Homo sapiens), Q99828-1 (parent)
chain: MGGSGSRLSKELLAEYQDLTFLTKQEILLAHRRFCELLPQEQRSVESSLRAQVPFEQILSLPELKANPFKERICRVFSTSPAKDSLSFEDFLDLLSVFSDTATPDIKSHYAFRIFDFDDDGTLNREDLSRLVNCLTGEGEDTRLSASEMKQLIDNILEESDIDRDGTINLSEFQHVISRSPDFASSFKIVL

Holding throughout (details): with psn2_human PSEN2, P49810
In assay [1] the parent is B1.
Variants of B1 are the subject of assay [2]. This is another data set of the same source.
The variants in assay [3] derive from B1. This is another data set of the same source.

Experimental findings from IntAct's records for PubMed 15475008 are described below.

As to E172Q, the “effect of a mutation on the interaction” value with psn2_human PSEN2, P49810 [1] is “disrupting interaction strength”; in the assay with psn2_human PSEN2, P49810 [2], “decreasing interaction strength”; with psn2_human PSEN2, P49810 [3], “decreasing interaction”.
Regarding D127N;E172Q, the “effect of a mutation on the interaction” value with psn2_human PSEN2, P49810 [1] is listed as “disrupting interaction strength”; with psn2_human PSEN2, P49810 [3], “decreasing interaction”.
The corresponding values for D127N are “disrupting interaction strength” and “decreasing interaction”.
